Where a chain is given by its changes, count along the chain named.

Experiment [1] has as its target rat CD5 antigen present on rat T cells (rat) (UniProt P51882). As to the kind of experiment: flow cytometry, rat blood cells 3 h after 0.5 mg/kg i.v. (In general: A flow cytometer gives signals particle by particle.)
For experiment [2] the target is unchanged. As to the kind of experiment: flow cytometry, rat spleen cells 3 h after 0.5 mg/kg i.v.
For experiment [3] the target is unchanged. Kind of experiment: flow cytometry, rat lymph node cells 3 h after 0.5 mg/kg i.v.
Experiment [4] addresses T1, human CD5 cell differentiation marker (human, UniProt P06127 25-495).
T1 construct: whole, on cells; Cell-surface CD5; also called CD5 antigen; gp67
T1 sequence (looked up): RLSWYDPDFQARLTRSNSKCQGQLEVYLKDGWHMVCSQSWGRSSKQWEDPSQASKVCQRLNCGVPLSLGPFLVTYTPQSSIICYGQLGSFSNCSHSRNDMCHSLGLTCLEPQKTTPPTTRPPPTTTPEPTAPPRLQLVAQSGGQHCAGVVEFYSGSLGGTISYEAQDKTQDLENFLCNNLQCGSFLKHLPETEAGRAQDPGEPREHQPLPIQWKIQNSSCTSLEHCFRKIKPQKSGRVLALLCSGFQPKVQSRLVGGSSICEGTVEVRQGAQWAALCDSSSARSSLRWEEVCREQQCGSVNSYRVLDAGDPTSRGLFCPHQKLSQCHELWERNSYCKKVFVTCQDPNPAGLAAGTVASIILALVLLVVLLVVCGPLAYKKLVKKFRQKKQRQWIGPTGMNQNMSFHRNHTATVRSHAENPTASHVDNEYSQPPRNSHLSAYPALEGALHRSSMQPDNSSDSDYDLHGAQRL
Kind of experiment: competition with 0.1 nM ^125I-cH65 IgG on Molt-4M cells, fitted with MacLigand. Here is the method: Competitive binding was performed as follows: 100 μl of Molt-4M cells were washed two times in ice-cold DHB binding buffer (Dubellco's modified Eagle's medium (Gibco, 320-1965PJ), 1.0% BSA and 10 mM Hepes at pH 7.2.-7.4). Cells were resuspended in the same buffer, plated into 96 v-bottomed wells (Costar) at 3×10⁵ cells per well and pelleted at 4° C. by centrifugation for 5 min at 1,000 rpm using a Beckman JS 4.2 rotor; 50 μl of 2×-concentrated 0.1 nM ¹²⁵I-cH65 IgG in DHB was then added to each well and competed with 50 μl of 2×-concentrated cH65 IgG or humanized antibody in DHB at final antibody concentrations from 100 nM to 0.0017 nM. Humanized antibody was obtained from culture supernatants of Sp2/0 clone C1718 which expresses he3 IgG. The concentration of the antibody in the supernatants was established by ELISA using a chimeric antibody as a standard. The concentration of the antibody in the purified preparation was determined by […] to proceed at 4° C. for 5 hrs and was terminated by washing cells three times with 200 Al of DHB binding buffer by centrifugation for 5 min at 1,000 rpm. All buffers and operations were at 4° C. Radioactivity was determined by solubilizing cells in 100 μl of 1.0 M NaOH and counting in a Cobra II auto gamma counter (Packard). Data from binding experiments were analyzed by the weighted nonlinear least squares curve fitting program, MacLigand, a Macintosh version of the computer program “Ligand” from Munson, Analyt. Biochem., 107:220 (1980). Objective statistical criteria (F, test, extra sum squares principle) were used to evaluate goodness of fit and for discriminating between models. Nonspecific binding was treated as a parameter subject to error and was fitted simultaneously with other parameters.

Experiment [5] addresses T1, human CD5 cell differentiation marker. As to the kind of experiment: FACS-based competitive assay, experiment 1; reference mouse H65 = 100%.
The target is the same in experiment [6]. Kind of experiment: FACS-based competitive assay, experiment 2; reference mouse H65 = 100%.
For experiment [7] the target is unchanged. Kind of experiment: FACS-based competitive assay, experiment 3; reference mouse H65 = 100%.
Experiment [8] shares this target. As to the kind of experiment: FACS-based competitive assay, mean of 3 experiments ± SD; reference mouse H65 = 100%.

Chain of rat CD5 antigen present on rat T cells (rat) (P51882 24-491): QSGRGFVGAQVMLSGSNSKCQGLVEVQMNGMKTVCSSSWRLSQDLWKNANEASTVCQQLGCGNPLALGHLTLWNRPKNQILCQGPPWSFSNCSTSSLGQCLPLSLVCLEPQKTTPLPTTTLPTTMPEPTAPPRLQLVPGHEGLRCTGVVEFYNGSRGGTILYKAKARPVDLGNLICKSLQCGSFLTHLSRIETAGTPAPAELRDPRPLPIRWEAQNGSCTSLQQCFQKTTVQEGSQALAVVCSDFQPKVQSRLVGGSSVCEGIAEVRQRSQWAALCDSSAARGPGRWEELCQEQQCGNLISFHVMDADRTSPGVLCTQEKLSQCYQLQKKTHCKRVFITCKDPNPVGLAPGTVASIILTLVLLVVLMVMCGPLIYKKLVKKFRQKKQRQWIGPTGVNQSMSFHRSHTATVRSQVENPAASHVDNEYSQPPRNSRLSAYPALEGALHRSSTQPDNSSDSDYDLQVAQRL

For the molecule OX19 MoAb (antibody), the results for the % of CD4 cells positive for surface-bound mouse IgG1 (CD4/mIgG1) in experiment [1], in experiment [2] and in experiment [3] were 96.2%, 84.8% and 96.2%, respectively. In addition, the % of CD8 cells positive for surface-bound mouse IgG1 (CD8/mIgG1) in experiment [1] was 70.2%; in experiment [2], 73.6%; in experiment [3], 96.8%.

B1: he3 Fab (Fab, V domains shown)
VH: EIQLVQSGGGLVKPGGSVRISCAASGYTFTNYGMNWVRQAPGKGLEWMGWINTHTGEPTYADSFKGRFTFSLDDSKNTAYLQINSLRAEDTAVYFCTRRGYDWYFDVWGQGTTVTVSS
VL: DIQMTQSPSSLSASVGDRVTITCRASQDINSYLSWFQQKPGKAPKTLIYRANRLESGVPSRFSGSGSGTDYTLTISSLQYEDFGIYYCQQYDESPWTFGGGTKLEIK
notes: Fab (he3 kappa and Fd) expressed in E. coli E104 from pING4628; also called Moderate-Risk Fab
Turning to B1, in experiment [4], the Kd turned out to be 2.2 nM.

B2: chimeric H65 IgG (antibody, V domains shown)
VH: QIQLVQSGPELKKPGETVKISCKASGYTFTNYGMNWVKQAPGKGLRWMGWINTHTGEPTYADDFKGRFAFSLETSASTAYLQINNLKNEDTATYFCTRRGYDWYFDVWGAGTTVTVSS
VL: DIKMTQSPSSMYASLGERVTITCKASQDINSYLSWFQQKPGKSPKTLIYRANRLVDGVPSRFSGSGSGQDYSLTISSLDYEDMGIYYCQQYDESPWTFGGGTKLEIK
notes: Light and heavy chain each consist of unmodified mouse V/J-segments fused to a human C-segment (human kappa / human gamma by the ELISA used); also called purified cH65 IgG
Turning to B2, the “cH65 Affinity Relative to H65 (100%)” value in experiment [5] turned out to be 113%; in experiment [6], 106%; in experiment [7], 96.3%; in experiment [8], 105%. Moreover, the affinity in experiment [4], expressed as Kd, was 2.3 nM.

B3: low-risk he1 Fab (Fab, V domains shown)
VH: B1 VH with E1Q, G9P, V12K, R38K, E46R, S63D, D74T, N77S, V93T
VL: B1 VL with L11M, V15L, A43S, E55V, S56D
notes: also called hel Fab; Low-Risk Fab
For B3, binding in experiment [4] was characterised by a dissociation constant (Kd) of 14.3 nM.

B4: low risk humanized H65 (he1) IgG (antibody, V domains shown)
VH: B1 VH with E1Q, G9P, V12K, R38K, E46R, S63D, D74T, N77S, V93T
VL: B1 VL with L11M, V15L, A43S, E55V, S56D
notes: Whole IgG with human constant regions (detected with anti-human kappa and anti-human gamma), expressed transiently in CHO-K1; also called he1 H65 antibody; hH65
In experiment [4], B4 returned a Kd of 2.1 nM.

B5: chimeric H65 Fab (Fab, V domains shown)
VH: B2 VH
VL: B2 VL
notes: Fab of the chimeric H65 antibody; also called Chimeric Fab
The molecule B5 showed a Kd in experiment [4] of 18.4 nM.

As a reminder, the Kd is the concentration at which binding is half-saturated.

For the origin of these results see US20030229207A1 (published 2003).
